Five molecules from patent publication US20250171532A1 (NB HEALTH LABORATORY, published 2025) can be followed below.

Test [1] concerns the target T1, mouse LPA1 (mouse, UniProt P61793 1-364). In words: cell-based or functional assay.
For test [2], the target named is T2, human LPA1 (human, UniProt Q92633 1-364). In words: cell-based or functional assay.
Test [3] deals with T3, human LPA3 with FLAG tag (human LPA3 gene transfected cell) (human, UniProt Q9UBY5 1-353).
T3 construct: also called EDG7; not shown: FLAG tag added at the 5' terminal of the gene
T3 sequence: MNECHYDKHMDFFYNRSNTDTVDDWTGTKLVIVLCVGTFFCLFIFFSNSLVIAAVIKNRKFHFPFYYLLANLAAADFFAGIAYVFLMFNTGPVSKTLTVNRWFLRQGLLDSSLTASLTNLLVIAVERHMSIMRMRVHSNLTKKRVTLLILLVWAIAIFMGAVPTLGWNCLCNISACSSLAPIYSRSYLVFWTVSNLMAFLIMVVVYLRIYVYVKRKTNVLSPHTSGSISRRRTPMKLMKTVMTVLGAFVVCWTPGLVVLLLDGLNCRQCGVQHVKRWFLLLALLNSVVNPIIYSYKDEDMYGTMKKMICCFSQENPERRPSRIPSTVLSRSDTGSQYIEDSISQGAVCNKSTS
Put plainly: flow cytometry, transfected HEK293FT cells, histogram shift. The procedure:
(§1) BTEK293FT cell was transfected with 10 μg of an expression vector carrying each synthetic gene using Lipofectamine 2000, to prepare a human LPA1 gene transfected cell, a mouse LPA1 gene transfected cell, a human LPA2 gene transfected cell, a mouse LPA2 gene transfected cell, a human LPA3 gene transfected cell, and a mouse LPA3 gene transfected cell.
(§2) The next day, the cells were washed with PBS, then detached from the cell culture dishes by an enzyme-free cell dissociation buffer (Thermo Fisher Scientific, Inc.), then washed with PBS, and then collected by centrifugation. Goat serum (Thermo Fisher Scientific, Inc.) was diluted by 2 times in FACS buffer (PBS containing 1% o of FBS), into which the cells were suspended at 1×10⁷ cells/mL. This suspension was allowed to stand at 4° C. for 30 minutes to block the cells. The cells were collected by centrifugation and suspended in FACS buffer at 4×10⁶ cells/mL, and this suspension was dispensed into a V-bottom 96-well plate (Thermo Fisher Scientific, Inc.) at 25 μL (1×10⁵ cells)/well.
(§3) The cells were collected by centrifugation and washed with 120 μL of FACS buffer. This washing operation was repeated twice. To the cell sediment, 25 μL each of Goat Anti-Mouse IgG H&L (DyLight 650) (Abcam) that was a secondary antibody diluted by 500 times in FACS buffer was dispensed, then suspended, and then allowed to stand at 4° C. for 1 hour. The cells were washed twice, then suspended in 50 μL of FACS buffer, and the whole content thereof was transferred to a V-bottom 96-well plate (Greiner), to measure the binding of antibodies to the cells using a flow cytometer (Agilent Novocyte).

The target in test [4] is T4, mouse LPA2 with FLAG tag (mouse LPA2 gene transfected cell) (mouse, UniProt Q9JL06 1-348).
T4 construct: not shown: FLAG tag added at the 5' terminal of the gene
T4 sequence (Q9JL06 whole entry): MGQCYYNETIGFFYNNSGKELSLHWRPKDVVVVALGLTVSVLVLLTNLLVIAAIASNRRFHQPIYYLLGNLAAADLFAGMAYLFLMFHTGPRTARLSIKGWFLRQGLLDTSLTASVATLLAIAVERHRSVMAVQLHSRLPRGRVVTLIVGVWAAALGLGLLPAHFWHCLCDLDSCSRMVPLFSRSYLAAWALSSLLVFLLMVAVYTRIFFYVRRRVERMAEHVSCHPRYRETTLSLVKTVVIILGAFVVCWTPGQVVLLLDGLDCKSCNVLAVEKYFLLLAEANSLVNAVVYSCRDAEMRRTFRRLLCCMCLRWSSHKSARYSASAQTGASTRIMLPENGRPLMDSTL
The test is described as above. How it is done:
as §1, §2, §3

Test [5] concerns the target T5, mouse LPA3 with FLAG tag (mouse LPA3 gene transfected cell) (mouse, UniProt Q9EQ31 1-354).
T5 construct: not shown: FLAG tag added at the 5' terminal of the gene
T5 sequence: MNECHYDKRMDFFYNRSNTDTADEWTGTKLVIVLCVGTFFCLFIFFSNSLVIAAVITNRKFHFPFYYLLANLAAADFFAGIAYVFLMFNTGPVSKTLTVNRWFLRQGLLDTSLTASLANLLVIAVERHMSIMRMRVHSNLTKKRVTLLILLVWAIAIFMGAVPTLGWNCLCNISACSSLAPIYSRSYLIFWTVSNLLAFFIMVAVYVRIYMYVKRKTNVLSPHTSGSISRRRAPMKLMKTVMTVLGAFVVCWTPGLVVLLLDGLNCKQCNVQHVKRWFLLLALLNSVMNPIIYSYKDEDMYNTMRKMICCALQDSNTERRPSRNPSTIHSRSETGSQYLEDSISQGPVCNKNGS
The description is as above. The procedure:
as §1, §2, §3

Test [6] has as its target T6, human LPA2 with FLAG tag (human LPA2 gene transfected cell) (human, UniProt Q9HBW0 1-348).
T6 construct: also called EDG4; not shown: FLAG tag added at the 5' terminal of the gene
Described as above. How it is done: as §1, §2, §3

Test [7] concerns the target T2, human LPA1. Put plainly: flow cytometry, human LPA1-stably expressing CHO cells, median fluorescence intensity. From the text:
(§4) The human LPA1-stably expressing CHO cell and the mouse LPA1-stably expressing CHO cell were washed with PBS, then detached from the cell culture dishes by an enzyme-free cell dissociation buffer (Thermo Fisher Scientific, Inc.), then washed with PBS, and then collected by centrifugation. The human LPA1-stably expressing CHO cell and the mouse LPA1-stably expressing CHO cell were suspended at 1×10⁷ cells/mL in Fc Block (Sci-Tech Biosciences, Inc.) diluted by 500 times in FACS buffer, and then allowed to stand at 4° C. for 30 minutes to block the cells. The cells were collected by centrifugation and suspended in FACS buffer at 4×10⁶ cells/mL, and this suspension was dispensed into a V-bottom 96-well plate (Thermo Fisher Scientific, Inc.) at 25 μL (1×10⁵ cells)/well. As primary antibodies, the eleven types of LPA1 antibodies produced and purified by the method described above and a mouse isotype control antibody (Fujifilm Wako Pure Chemicals Corporation) were diluted stepwise, which was added to each well at 25 μL/well, and allowed to stand at 4° C. for 1 hour. The cells were collected by centrifugation and washed with 120 μL of FACS buffer. This washing operation was repeated twice. To the cell sediment, 25 μL each of Goat Anti-Mouse IgG H&L (DyLight 650) (Abcam) that was a secondary antibody diluted by 500 times in FACS buffer was dispensed, then suspended, and then allowed to stand at 4° C. for 1 hour. The cells were washed twice, then suspended in 50 μL of FACS buffer, and the binding of antibodies to the cells was measured using a flow cytometer (Agilent Novocyte).
(§5) A graph was created, in which a concentration of the antibody was plotted on the […] axis, and a median fluorescence intensity of the flow cytometer histogram was plotted on the horizontal axis. All of the eleven antibodies were confirmed to dose-dependently bind to the human LPA1-stably expressing CHO cell and the mouse LPA1-stably expressing CHO cell. The results of the binding of each antibody to the human LPA1-stably expressing CHO cell are presented in FIG. 2A to FIG. 2K, and the results of the binding of each antibody to the mouse LPA1-stably expressing CHO cell are presented in FIG. 3A to FIG. 3K.
For orientation: A flow cytometer gives signals particle by particle.

The target in test [8] is T1, mouse LPA1. Put plainly: flow cytometry, mouse LPA1-stably expressing CHO cells, median fluorescence intensity.
Excerpt: as §4, §5

For test [9], the target named is T2, human LPA1. Put plainly: cell-based or functional assay. This is another data set of the same source.

Broadly, the EC50 is the midpoint of the concentration-response curve.

T6 sequence (Q9HBW0 other isoform, or with tags, fused parts or gaps): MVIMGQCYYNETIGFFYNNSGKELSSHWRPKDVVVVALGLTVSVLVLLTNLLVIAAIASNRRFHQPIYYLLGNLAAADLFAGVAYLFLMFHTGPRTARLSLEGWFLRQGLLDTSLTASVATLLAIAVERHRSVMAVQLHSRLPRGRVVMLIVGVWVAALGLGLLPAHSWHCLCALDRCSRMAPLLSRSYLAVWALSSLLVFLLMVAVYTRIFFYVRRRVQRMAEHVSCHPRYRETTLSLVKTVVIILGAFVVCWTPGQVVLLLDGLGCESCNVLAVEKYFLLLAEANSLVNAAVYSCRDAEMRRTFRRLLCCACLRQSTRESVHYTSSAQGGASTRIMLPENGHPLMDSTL
T2 sequence (Q92633 whole entry): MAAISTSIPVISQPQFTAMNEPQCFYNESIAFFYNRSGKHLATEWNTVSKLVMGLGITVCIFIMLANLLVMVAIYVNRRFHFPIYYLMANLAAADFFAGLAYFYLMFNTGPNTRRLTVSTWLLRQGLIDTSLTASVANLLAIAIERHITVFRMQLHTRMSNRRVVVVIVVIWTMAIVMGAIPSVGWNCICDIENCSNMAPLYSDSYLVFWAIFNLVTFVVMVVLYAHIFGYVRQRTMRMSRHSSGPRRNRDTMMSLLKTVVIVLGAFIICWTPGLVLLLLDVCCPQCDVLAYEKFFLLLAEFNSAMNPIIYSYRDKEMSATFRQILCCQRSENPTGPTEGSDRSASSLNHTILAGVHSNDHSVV
T1 sequence (P61793 whole entry): as the sequence (Q92633 whole entry) above, with I4A, I8S, P22Q, H40Y, I61V, E193D, N194H, I269V, S331N, T335N counted along it

B1: 210309-1-C (antibody, mouse IgG1, V domains shown)
VH: QVHLQQSGAELARPGASVKLSCKASGYSFTAYGISWVQQRTGQGLEWIGEIYPRSGNTYYSEKFKGKATLTADKSSSTAYMELRSLTSEDSAVYFCARESLLKRLGWYFDVWGTGTTVTVSS
VL: DIQMTQSPASLSASVGETVTITCRASQNIYSFLAWYQQKQGNSPQLLVYNAKTLAEGVPSRFSGSGSGTQFSLKINSLQPEDFGSYYCQHHYGPPLTFGVGTKLELK
notes: Mouse monoclonal from human LPA1 immunization
In the case of B1, the “Intracellular cAMP signaling inhibition (Inhibition rate %/100 nM)” value in the test with mouse LPA1 [1] is 20%; with human LPA1 [2] it was 47%. Besides, the binding result in [3], in [4], in test [5] and in [6] was “no binding (tested: 25 g/mL (so in the source))” in each case. Moreover, the concentration giving a half-maximal response (EC50) was 1.7 nM in the test with human LPA1 [7] and 1.8 nM in the test with mouse LPA1 [8]. In addition, in the test with human LPA1 [9], the “Intracellular cAMP signaling inhibition IC50” value turned out to be 25.1 nM.

B2: 210420-1-H (antibody, mouse IgG1, V domains shown)
VH: QFQLQQSGAELARPGASVKLSCKASGYTFASFGISWVKQRTGQGLEYIGEIYPRSGTTYFNEKFRGKATLTADKSSSTAYMELRSLTSEDSAVYFCAREGVRRYAMDYWGQGTSVTVSS
VL: DIQVTQSPASLSASVGETVTITCRASGNIYSFLAWYQQKQGKSPQLLVYNAKTLAEGVPSRFSGSGSGTQFSLKISSLQPEDFGSYYCQHHYGIPLTFGGGTKLDLK
notes: Mouse monoclonal from mouse LPA1 immunization
Regarding B2, the “Intracellular cAMP signaling inhibition (Inhibition rate %/100 nM)” value in the test with mouse LPA1 [1] is 37%; in the test with human LPA1 [2], 22%. In addition, the binding result in test [3], in test [4], in test [5] and in test [6] was “no binding (tested: 25 g/mL (so in the source))” each time. Also, the concentration giving a half-maximal response (EC50) with human LPA1 [7] was determined as 2.5 nM; with mouse LPA1 [8], 1.6 nM. For the same molecule, the “Intracellular cAMP signaling inhibition IC50” value with human LPA1 [9] came to 49.1 nM.

B3: 210309-2-A (antibody, mouse IgG1, V domains shown)
VH: QVQLQQSGAELARPGASVKLSCKASGYTFTSYGISWVKQRTGQGLEWIGEIYPRSGNTYYNEKFKGRATLTADKSSSTAYMELRSLTSEDSAVYFCARESILLRLGWYFDVWGTGTTVTVSS
VL: DIQMTQSPASLSASVGGTVTITCRASENIYRFLAWYQQKQGKSPQLLVYNAKTLAEGVPSRFSGSGSGTQFSLKINSLQPEDFGIYYCQHHYGPPLTFGAGTKLELK
notes: as for B1
In the case of B3, the “Intracellular cAMP signaling inhibition (Inhibition rate %/100 nM)” value with mouse LPA1 [1] and in the test with human LPA1 [2] was 32% each time. The binding result in test [3], in [4], in test [5] and in test [6] was “no binding (tested: 25 g/mL (so in the source))” each time. In addition, the concentration giving a half-maximal response (EC50) with human LPA1 [7] was found to be 1.4 nM; with mouse LPA1 [8] it was 2.1 nM. For the same molecule, in the test with human LPA1 [9], the “Intracellular cAMP signaling inhibition IC50” value worked out at 21.8 nM.

B4: 210310-1-D (antibody, mouse IgG1, V domains shown)
VH: QVQVQQSGAELARPGASVRLSCKASGYTFTSFGVNWVKQRTGQGLEWIGQIYPRTGTTYHNERFKGKATLTTDKSSSTAYMELRSLTSEDSAVYFCAREGDRYSLAYWGQGTLVTVSA
VL: DIQMTQSPASLSASVGETVTITCRASENIYRFLAWYQQKQGKSPQLLVYNAKTLVEGVPSRFSGSGSGTQFSLKINNLQPEDFGSYYCQHHYGIPLTFGAGTKLELK
notes: as for B1
As to B4, the “Intracellular cAMP signaling inhibition (Inhibition rate %/100 nM)” value worked out at 25% with mouse LPA1 [1] and 22% with human LPA1 [2]. Also, the binding result in test [3], in test [4], in test [5] and in test [6] was “no binding (tested: 25 g/mL (so in the source))” each time. For the same molecule, the EC50 in the test with human LPA1 [7] came out at 2.7 nM; with mouse LPA1 [8], 2.1 nM. Besides, the “Intracellular cAMP signaling inhibition IC50” value in the test with human LPA1 [9] came to 60.5 nM.

B5: 211222-1-A (antibody, mouse IgG1, V domains shown)
VH: QVQVHQSGAELARPGASVRLSCKASGYTFTSFGVNWVKQRTGQGLEWIGQIYPRSGTTYHNERFKGKATLTADKSSSTAYMELRSLTSEDSAVYFCAREGDRYSLAYWGQGTLVTVSA
VL: DIQMTQSPASLSASVGETVTITCRASENIYRFLAWYQQKQGKSPQLLVSNAKTLAEGVPSRFSGSGSGTQFSLKINYLQPEDFGNYYCQHHYGIPLTFGAGTKLELK
notes: as for B1
In the case of B5, the figures for the “Intracellular cAMP signaling inhibition (Inhibition rate %/100 nM)” value with mouse LPA1 [1] and with human LPA1 [2] were 30% and 1%, respectively. The binding result in test [3], in test [4], in test [5] and in [6] was “no binding (tested: 25 g/mL (so in the source))” throughout. The values for the EC50 with human LPA1 [7] and in the test with mouse LPA1 [8] were 2.3 nM and 2 nM, respectively. In addition, the “Intracellular cAMP signaling inhibition IC50” value with human LPA1 [9] was determined as 69.9 nM.
